Patent US20190307836A1 (Bicycle, published 2019)
Starred links: 1 amine or outer side, 2 acyl side, 3 side chain; linkers in the order of their positions; H or OH if unused. Positions of bridges follow the written chain, without caps; N, C: chain ends. Non-standard residues stand in square brackets, D forms with d. Chains are numbered I, II in the order given. No end group written: not given here. *: point of attachment. TATA = O=C(CC[*:1])N1CN(C(=O)CC[*:2])CN(C(=O)CC[*:3])C1; Dap(PYA) = diaminopropionic acid bearing 4-pentynoyl; 1Nal = N[C@@H](Cc1cccc2ccccc12)C(=O)O; Hyp = O=C(O)[C@@H]1C[C@@H](O)CN1; hArg = N=C(N)NCCCC[C@H](N)C(=O)O; tBuAla = CC(C)(C)C[C@H](N)C(=O)O; Nle = CCCC[C@H](N)C(=O)O; Pent4ynoyl = C#CCCC(=O)*; Dap = NC[C@H](N)C(=O)O; βAla = NCCC(=O)O; Sar = CNCC(=O)O

T1: Human Nectin-4 (residues Gly32-Ser349; NCBI RefSeq: NP_112178.2) with C-terminal FLAG tag (human, UniProt Q96NY8 32-349, randomly biotinylated with EZ-Link Sulfo-NHS-LC-LC-Biotin)
T1 construct: range 32-349; also called human Nectin-4 protein; not shown: C-terminal FLAG tag
T1 sequence (looked up): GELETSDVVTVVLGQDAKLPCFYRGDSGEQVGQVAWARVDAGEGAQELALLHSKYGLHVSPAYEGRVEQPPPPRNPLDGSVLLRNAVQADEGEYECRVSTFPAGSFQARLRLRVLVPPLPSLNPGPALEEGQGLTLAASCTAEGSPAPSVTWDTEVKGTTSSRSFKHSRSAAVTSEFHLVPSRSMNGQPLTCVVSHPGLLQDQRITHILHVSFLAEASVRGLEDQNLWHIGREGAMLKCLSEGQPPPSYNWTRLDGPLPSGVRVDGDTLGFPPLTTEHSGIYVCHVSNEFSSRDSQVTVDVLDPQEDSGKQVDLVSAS


How the values were obtained:
[1] = biological target: T2, Recombinant human CD137 (R&D systems) (human, UniProt Q07011 24-186, biotinylated with EZ-Link Sulfo-NHS-LC-LC-Biotin); test: SPR (Biacore), biotinylated human CD137 on streptavidin chip
T2 construct: Bought protein; also called human CD137 protein; TNFRSF9
Description: The protein was desalted to remove uncoupled biotin using spin columns into PBS.
For analysis of peptide binding, a Biacore T200 or a Biacore 3000 instrument was used with a XanTec CMD500D chip. Streptavidin was immobilized on the chip using standard amine-coupling chemistry at 25° C. with HBS-N (10 mM HEPES, 0.15 M NaCl, pH 7.4) as the running buffer. Briefly, the carboxymethyl dextran surface was activated with a 7 min injection of a 1:1 ratio of 0.4 M 1-ethyl-3-(3-dimethylaminopropyl) carbodiimide hydrochloride (EDC)/0.1 M N-hydroxy succinimide (NHS) at a flow rate of 10 μl/min. For capture of streptavidin, the protein was diluted to 0.2 mg/ml in 10 mM sodium acetate (pH 4.5) and captured by injecting 120 μl of onto the activated chip surface. Residual activated groups were blocked with a 7 min injection of 1 M ethanolamine (pH 8.5) and biotinylated CD137 captured to a level of 270-1500 RU. Buffer was changed to PBS/0.05% Tween 20 and a dilution series of the peptides was prepared in this buffer with a final DMSO concentration of 0.5%. The top peptide concentration was 500 nM with 6 further 2-fold or 3-fold dilutions. The SPR analysis was run at 25° C. at a flow rate of 90 μl/min with 60 seconds association and 900 seconds dissociation. After each cycle a regeneration step (10 μl of 10 mM glycine pH 2) was employed. Data were corrected for DMSO excluded volume effects as needed. All data were double-referenced for blank injections and reference surface using standard processing procedures and data processing and kinetic fitting were performed using Scrubber software, version 2.0c (BioLogic Software). Data were fitted using simple 1:1 binding model allowing for mass transport effects where appropriate.

[2] = biological target: CD137 expressed on cells (CHO cells expressing CD137); Jurkat cells of the Promega CD137 luciferase reporter … (UniProt Q07011 24-255, limits assumed); test: cell-based or functional assay
[3] = biological target: T3, human EphA2 protein (human, UniProt P29317 25-534, limits assumed, biotinylated with EZ-Link Sulfo-NHS-LC-Biotin); test: SPR (Biacore T200), biotinylated human EphA2 on streptavidin chip
T3 construct: Construct not described
Description: (§1) Streptavidin was immobilized on the chip using standard amine-coupling chemistry at 25° C. with HBS-N (10 mM HEPES, 0.15 M NaCl, pH 7.4) as the running buffer. Briefly, the carboxymethyl dextran surface was activated with a 7 min injection of a 1:1 ratio of 0.4 M 1-ethyl-3-(3-dimethylaminopropyl) carbodiimide hydrochloride (EDC)/0.1 M N-hydroxy succinimide (NHS) at a flow rate of 10 μl/min. […] Data were corrected for DMSO excluded volume effects. All data were double-referenced for blank injections and reference surface using standard processing procedures and data processing and kinetic fitting were performed using Scrubber software, version 2.0c (BioLogic Software). Data were fitted using simple 1:1 binding model allowing for mass transport effects where appropriate.

[4] = biological target: CD137 expressed on cells (CHO cells expressing CD137; Jurkat cells of the Promega CD137 luciferase reporter assay) (UniProt Q07011); test: cell-based or functional assay
[5] = biological target: T1, Human Nectin-4 (residues Gly32-Ser349; …); test: SPR (Biacore 3000), biotinylated human Nectin-4 on streptavidin chip
Description: as §1, with “[…] Buffer was changed to PBS/0.05% Tween 20 and a dilution series of” for “Briefly,”, “peptides” for “carboxymethyl dextran surface”, “prepared in this buffer” for “activated”, “final DMSO concentration” for “7 min injection”, “0.5%.” for “a 1:1 ratio of 0.4 M 1-ethyl-3-(3-dimethylaminopropyl) carbodiimide hydrochloride (EDC)/0.1 M N-hydroxy succinimide (NHS) at a flow rate of 10 μl/min.”

[6] = biological target: CD137 on human PBMC (anti-CD3 stimulated) (human, UniProt Q07011 24-255); test: cell-based or functional assay
CD137 on human PBMC (anti-CD3 stimulated), sequence (Q07011 24-255): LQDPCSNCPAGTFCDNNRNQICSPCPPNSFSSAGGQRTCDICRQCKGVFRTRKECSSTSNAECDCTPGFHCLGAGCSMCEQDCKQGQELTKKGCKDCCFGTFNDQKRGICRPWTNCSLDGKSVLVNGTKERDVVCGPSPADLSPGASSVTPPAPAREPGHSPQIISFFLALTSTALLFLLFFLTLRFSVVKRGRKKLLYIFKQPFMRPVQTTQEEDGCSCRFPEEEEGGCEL

T3 sequence (P29317 25-534 limits assumed): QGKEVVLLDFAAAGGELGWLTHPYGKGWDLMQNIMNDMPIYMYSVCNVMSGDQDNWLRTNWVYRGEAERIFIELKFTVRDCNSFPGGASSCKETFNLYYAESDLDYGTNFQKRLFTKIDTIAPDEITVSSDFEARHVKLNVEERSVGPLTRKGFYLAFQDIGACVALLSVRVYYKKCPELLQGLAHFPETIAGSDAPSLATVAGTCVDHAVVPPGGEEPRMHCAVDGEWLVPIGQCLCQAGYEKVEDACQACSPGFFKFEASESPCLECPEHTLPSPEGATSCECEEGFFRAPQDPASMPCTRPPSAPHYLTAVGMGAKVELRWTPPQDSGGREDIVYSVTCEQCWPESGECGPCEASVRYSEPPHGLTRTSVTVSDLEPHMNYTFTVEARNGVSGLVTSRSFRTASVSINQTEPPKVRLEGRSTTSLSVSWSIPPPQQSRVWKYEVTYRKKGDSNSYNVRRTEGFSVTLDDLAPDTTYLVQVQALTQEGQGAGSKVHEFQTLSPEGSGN
CD137 expressed on cells (CHO cells expressing CD137); Jurkat cells of the Promega CD137 luciferase reporter …, sequence (Q07011 24-255 limits assumed): as the sequence (Q07011 24-255) above
CD137 expressed on cells (CHO cells expressing CD137; Jurkat cells of the Promega CD137 luciferase reporter assay), sequence (Q07011 24-255 limits assumed): as the sequence (Q07011 24-255) above

Binder	Kd [1] [nM]	Kd [3] [nM]	EC50 (nM), CD137 reporter assay, co-culture with SC-OV-3 (EphA2) [2] [nM]	Fold Induction over Background, CD137 reporter assay, co-culture with SC-OV-3 (EphA2) [2] [fold]	other results
heterotandem bicyclic peptide complex BCY8943 (BCY7732: N-terminal acetyl; Nle12; C-terminal Dap (diaminopropionic acid) bearing the linker; Ci, Cii, Ciii on TATA scaffold; BCY8941: N-terminal [PYA]-[B-Ala]-[Sar10]- (linker on PYA); HArg12; Ci, Cii, Ciii on TATA scaffold) peptide 1: VGPCLWDPTPCANLHLXC peptide 2: ACIEEGQYCFADPYXC	156				Fold Induction over Background, CD137 reporter assay, co-culture with PC3 (EphA2) [2]: < 2 fold
heterotandem bicyclic peptide complex BCY7985 (BCY7732: N-terminal acetyl; Nle12; C-terminal Dap (diaminopropionic acid) bearing the linker; Ci, Cii, Ciii on TATA scaffold; BCY6169: N-terminal [PYA]-[B-Ala]-[Sar10]- (linker on PYA); HArg in the A-[HArg]-D extension; HyP1, dD10, HArg12; Ci, Cii, Ciii on TATA scaffold, also called EphA2-CD137 heterotandem BCY7985) peptide 1: AXDCXLVNPLCLHPDWXC peptide 2: ACIEEGQYCFADPYXC	143	2	4	15	
heterotandem bicyclic peptide complex BCY9351 (BCY8045: N-terminal acetyl; D-Ala8, Nle12; C-terminal Dap (diaminopropionic acid) bearing the linker; Ci, Cii, Ciii on TATA scaffold; BCY8846: N-terminal [PYA]-[B-Ala]-[Sar10]- (linker on PYA); 1Nal2, dD3, HArg5, HyP11; Ci, Cii, Ciii on TATA scaffold) peptide 1: CPXDCMXDWSTPXWC peptide 2: ACIEEGQYCFADPYXC	3640				Fold Induction over Background, CD137 reporter assay, co-culture with H1376 (Nectin4) [4]: < 2 fold; Kd [5]: 2.47 nM
heterotandem bicyclic peptide complex BCY10571 (linker I:1-I:5-I:15, II:1-II:8-II:15 via TATA; not fully specified (C-terminus, bridges); also: chains joined by PEG5 linker on chain 1 N-terminus, triazole to K(PYA)) peptide 1: CP[1Nal][dD]CM[hArg]DWSTP[Hyp]WC peptide 2: Ac-C[tBuAla]PK(Pent4ynoyl)[dA]PYCFADPY[Nle]CA	12				EC50 (nM), IFN-γ secretion, human PBMC co-culture with 4T1-D02(Nectin4+) [6]: 0.44 nM; max IFN-γ (pg/ml), human PBMC co-culture with 4T1-D02(Nectin4+) [6]: 18300 pg/mL
heterotandem bicyclic peptide complex BCY9173 (linker I:14-I:21-I:28, II:1-II:8-II:15 via TATA; numbers in words are those of the source; also: heterotandem: PYA of chain 1 linked via PEG12 to C-terminal Dap of chain 2) peptide 1: {Pent4ynoyl-βAla}-[Sar][Sar][Sar][Sar][Sar][Sar][Sar][Sar][Sar][Sar]A[hArg]DC[Hyp]LVNPLCLHP[dD]W[hArg]C peptide 2: Ac-C[tBuAla]PE[dA]PYCFADPY[Nle]C[Dap]	7.98	2.1	0.94	21	
heterotandem bicyclic peptide complex BCY10573 (linker I:1-I:5-I:15, II:1-II:8-II:15 via TATA; not fully specified (C-terminus); also: linker to a chain's N/C-terminus via PEG5) peptide 1: CP[1Nal][dD]CM[hArg]DWSTP[Hyp]WC peptide 2: Ac-C[tBuAla]PE[dA]PYCFADPY[Nle]C-{Dap(PYA)}	3.39				
heterotandem bicyclic peptide complex BCY9758 (BCY7732: N-terminal acetyl; Nle12; C-terminal Dap (diaminopropionic acid) bearing the linker; Ci, Cii, Ciii on TATA scaffold; BCY6099: N-terminal [B-Ala]-[Sar10]- (linker on N-terminus); HArg in the A-[HArg]-D extension; HyP1, dD10, HArg12; Ci, Cii, Ciii on TATA scaffold) peptide 1: AXDCXLVNPLCLHPDWXC peptide 2: ACIEEGQYCFADPYXC	189	1.5	1.2	7	
